Assay results reported in patent US20240109974A1 (SHANDONG SIMCERE BIOPHARMACEUTICAL, published 2024).
Where a chain is given by its changes, count along the chain named.

T1: human TNFR2 on the surface of CHO-TNFR2 cells (human, UniProt P20333 23-461)
T1 construct: whole, on cells
T1 sequence (looked up): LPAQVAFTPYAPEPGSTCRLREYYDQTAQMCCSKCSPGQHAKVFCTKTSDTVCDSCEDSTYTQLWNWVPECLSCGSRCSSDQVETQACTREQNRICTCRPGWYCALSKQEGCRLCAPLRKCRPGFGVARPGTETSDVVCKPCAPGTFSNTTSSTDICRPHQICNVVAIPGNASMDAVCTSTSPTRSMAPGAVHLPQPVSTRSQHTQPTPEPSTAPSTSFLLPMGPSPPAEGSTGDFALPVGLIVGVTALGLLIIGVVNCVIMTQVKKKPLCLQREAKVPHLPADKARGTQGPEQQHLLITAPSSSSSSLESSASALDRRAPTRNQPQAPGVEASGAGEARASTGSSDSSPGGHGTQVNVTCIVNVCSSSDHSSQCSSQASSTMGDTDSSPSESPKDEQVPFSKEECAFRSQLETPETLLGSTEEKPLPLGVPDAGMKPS

B1: 224-Hu1 (antibody, V domains shown)
VH: QVQLVQSGAEVKKPGASVKVSCKASGFNNKDIYMHWVRQAPGQGLEWIGRIDPATGNTKHDPKFQDRVTMTSDTSTNTVYMELSSLRSEDTAVYYCARSPYGDFGAMDYWGQGTLVTVSS
VL: DIQMTQSPSSLSASVGDRVTITCTASSSVSSNYLHWYQQKPGKAPKLWIYSTSNLPSGVPSRFSGSGSGTDFTLTISSLQPEDFATYYCHQYHRSPWTFGQGTKVEIK
notes: Humanized form of #224; also called VH8 + VL6
B2: 224-Hu7 (antibody, V domains shown)
VH: QVQLVQSGSELKKPGASVKVSCKASGFNNKDIYMHWVRQAPGQGLEWMGRIDPATGNTKHDPKFQDKAVLSSDTSVSTAYLQISSLKAEDTAVYYCARSPYGDFGAMDYWGQGTLVTVSS
VL: B1 VL with W48L
notes: Humanized form of #224; also called VH9 + VL10
B3: 224-Hu3 (antibody, V domains shown)
VH: B2 VH
VL: B1 VL with W48L, P81A, F84A
notes: Humanized form of #224; also called VH9 + VL8
B4: 224-Hu2 (antibody, V domains shown)
VH: B2 VH
VL: B1 VL with K43S, A44S
notes: Humanized form of #224; also called VH9 + VL7
B5: 224-Hu4 (antibody, V domains shown)
VH: B2 VH
VL: B1 VL
notes: Humanized form of #224; also called VH9 + VL6
B6: 224-Hu5 (antibody, V domains shown)
VH: B2 VH
VL: B1 VL with W48L, F72Y, T73S
notes: Humanized form of #224; also called VH9 + VL9
B7: 224-Hu6 (antibody, V domains shown)
VH: B1 VH
VL: B1 VL with K43S, A44S
notes: Humanized form of #224; also called VH8 + VL7

Target: T1, human TNFR2 on the surface of CHO-TNFR2 …
Experiment: flow cytometry on CHO-TNFR2 cells; AUC against 224-WT
Description: The transfected full-length plasmid of human TNFR2 was purchased from Sino Biological (Cat #HG10417-UT, NCBI Ref Seq: NM_001066.2). The experiment was conducted at a cell density within 80%. The cell medium was discarded; the cells were rinsed with PBS, and digested with 1 ml trypsin for 2 minutes; the digestion was stopped with a Ham's F12 complete medium containing 10% FBS, and then a cell suspension was made. The cell suspension was counted, and then an appropriate amount of cell suspension was centrifuged at 350×g; the supernatant was discarded; a corresponding volume of blocking solution (10% FBS+PBS) at a density of 1×10⁷ cells/ml was added to resuspend the cells, and the mixture was incubated at 4° C. for 30 minutes. After the incubation, the mixture was centrifuged at 350×g to remove the supernatant, and the cells were resuspended in a staining buffer (2% FBS+PBS) to a density of 2×10⁶ cells/ml, and spread onto a 96-well plate, with 50 μl of cell suspension added to each well for later use. The antibody was diluted with PBS for 10-fold gradient dilution from the highest concentration of 20 μg/m (twice the concentration); the diluted antibody was added to the well containing 50 μl of cell suspension, and placed on a microplate shaker for shaking at 500 rpm for 1 minute, so that the antibody was fully mixed with the cells; the mixture was incubated at 4° C. for 1 h. After the incubation, the cells were washed twice with the staining buffer, with 100 μl per well, and centrifuged at 350-g for 5 minutes, and the supernatant was discarded. The PE goat anti-Human IgG Fc antibody (ebioscience, Cat #12-4998-82) was diluted 250-fold with the staining buffer, with a volume of 100 μl per well added to the washed cell wells; the mixture was mixed evenly, and stained at 4° C. for 30 minutes. After the staining, similarly, the cells were washed twice with the staining buffer; finally, the cells were resuspended in 200 μl of staining buffer; signals were detected by a flow cytometer (Thermo Attune NxT). The stronger the signal, the stronger the binding ability of an antibody to TNFR2. The binding curve of an antibody was drawn with antibody concentration as the abscissa and corresponding mean fluorescence intensity (MFI) fold as the ordinate, and fitted with four parameters (GraphPad Prism9) to calculate the EC50 value.

Binder	% Relative activity (Test antibody/WT antibody) [%]
B1	96.2
B2	91
B3	101
B4	101
B5	93.1
B6	88.9
B7	90.4

Target: T1, human TNFR2 on the surface of CHO-TNFR2 …
Experiment: competition flow cytometry on CHO-TNFR2 cells, competitor TNFα-biotin; IC50 against 224-WT
Description: CHO stable cells highly expressing human TNFR2 were used for the experiment (the same as CHO-TNFR2 in Example 4). The CHO-TNFR2 cells were digested, washed twice with DPBS, then stained with Live/Dead (L/D) (20 minutes at room temperature), and plated at a density of 1×10⁵ cells/50 μl/well. A test anti-TNFR2 antibody was diluted to 6 μg/ml with a staining buffer as the starting concentration: the antibody was subjected to 3.33-fold gradient dilution, with a total of 7 concentration points. The diluted antibody was added to the plated cells at 50 μl/well, and the mixture was mixed well by gentle pipetting, and incubated at 4° C. for 30 minutes. Then the diluted 100 ng/ml of human TNFα-biotin was added at 100 μl/well, and the mixture was mixed well by gentle pipetting, and then incubated at 4° C. for 30 minutes. The mixture was washed twice with a staining buffer, and then 0.12 μg/ml PE-streptavidin (BioLegend, Cat #405204) was added at 100 μl/well; the resulting mixture was incubated at 4° C. for 30 minutes. The mixture was washed twice with a staining buffer, and then 150 μl of staining buffer was added to resuspend the cells; signals were detected by a flow cytometer (Thermo Attune NxT). The inhibitory curve of an antibody was drawn with antibody concentration as the abscissa and corresponding MFI value as the ordinate, and fitted with four parameters (GraphPad Prism9) to calculate the IC50 value. The smaller the IC50 value, the stronger the ability of an antibody to inhibit the binding of human TNFα to human TNFR2. The blocking effect of a humanized antibody was normalized to its corresponding human-murine chimeric WT antibody. The higher the percentage value, the better the inhibitory effect of the humanized antibody.

Binder	% Relative activity (WT antibody/test antibody) [%]
B1	108
B2	73
B3	107
B4	124
B5	102
B6	95
B7	96
